Measurements reported in IntAct's records for PubMed 28062662.

B1: Glutaryl-CoA dehydrogenase, mitochondrial (Homo sapiens), Q92947 (parent)
chain: MALRGVSVRLLSRGPGLHVLRTWVSSAAQTEKGGRTQSQLAKSSRPEFDWQDPLVLEEQLTTDEILIRDTFRTYCQERLMPRILLANRNEVFHREIISEMGELGVLGPTIKGYGCAGVSSVAYGLLARELERVDSGYRSAMSVQSSLVMHPIYAYGSEEQRQKYLPQLAKGELLGCFGLTEPNSGSDPSSMETRAHYNSSNKSYTLNGTKTWITNSPMADLFVVWARCEDGCIRGFLLEKGMRGLSAPRIQGKFSLRASATGMIIMDGVEVPEENVLPGASSLGGPFGCLNNARYGIAWGVLGASEFCLHTARQYALDRMQFGVPLARNQLIQKKLADMLTEITLGLHACLQLGRLKDQDKAAPEMVSLLKRNNCGKALDIARQARDMLGGNGISDEYHVIRHAMNLEAVNTYEGTHDIHALILGRAITGIQAFTASK
partner: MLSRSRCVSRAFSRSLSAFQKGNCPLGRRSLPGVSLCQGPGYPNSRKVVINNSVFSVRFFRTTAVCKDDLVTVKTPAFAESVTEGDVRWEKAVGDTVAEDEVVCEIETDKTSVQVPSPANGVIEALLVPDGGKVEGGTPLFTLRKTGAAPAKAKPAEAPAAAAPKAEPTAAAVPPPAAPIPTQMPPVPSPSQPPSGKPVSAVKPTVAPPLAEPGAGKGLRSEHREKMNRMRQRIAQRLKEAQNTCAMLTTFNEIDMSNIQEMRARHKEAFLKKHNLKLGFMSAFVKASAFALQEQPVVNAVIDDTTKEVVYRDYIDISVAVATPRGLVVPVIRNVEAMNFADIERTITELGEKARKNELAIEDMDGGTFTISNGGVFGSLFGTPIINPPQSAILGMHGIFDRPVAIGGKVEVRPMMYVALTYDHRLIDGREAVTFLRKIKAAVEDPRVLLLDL
B2: Glutaryl-CoA dehydrogenase, mitochondrial (Homo sapiens), Q92947 (parent)
chain: B1 chain
partner: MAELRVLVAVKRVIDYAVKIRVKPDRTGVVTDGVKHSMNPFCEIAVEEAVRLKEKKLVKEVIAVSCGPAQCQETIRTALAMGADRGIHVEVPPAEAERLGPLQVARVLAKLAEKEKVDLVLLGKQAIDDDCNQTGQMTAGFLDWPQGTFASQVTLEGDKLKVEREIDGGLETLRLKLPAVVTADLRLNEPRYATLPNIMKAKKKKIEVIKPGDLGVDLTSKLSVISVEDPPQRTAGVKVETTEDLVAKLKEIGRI

Variants of: B1
Settings: with odo2_human DLST

Variant | effect of a mutation on the interaction
R227P | decreasing interaction strength
W50C | increasing interaction strength
E90K | increasing interaction strength
P217L | decreasing interaction strength
P278S | increasing interaction strength
P248L | increasing interaction strength
R161Q | increasing interaction strength
R94L | increasing interaction strength
M263V | increasing interaction strength
G244C | increasing interaction strength
S119L | increasing interaction strength
R355H | decreasing interaction strength
Y155H | decreasing interaction strength
C115Y | increasing interaction strength
Y113H | decreasing interaction strength
G117R | increasing interaction strength
G101R | decreasing interaction strength
R88C | increasing interaction strength

Variants of: B2
Settings: with etfb_human ETFB

Variant | effect of a mutation on the interaction
Y155H | increasing interaction strength
C115Y | increasing interaction strength
M263V | increasing interaction strength
R161Q | increasing interaction strength
G101R | increasing interaction strength
P278S | increasing interaction strength
P217L | decreasing interaction strength
R88C | increasing interaction strength
G117R | decreasing interaction strength
W50C | increasing interaction strength
Y113H | increasing interaction strength
R227P | increasing interaction strength
G244C | increasing interaction strength
P248L | increasing interaction strength
R355H | increasing interaction strength
E90K | increasing interaction strength
R94L | increasing interaction strength
S119L | decreasing interaction strength
